Data: PMC2572193, “Structural Analysis of the Interactions Between Paxillin LD Motifs and α-Parvin” (Structure(London, England:1993), 2008)
“Also recorded” adds a separate entry of the source. Where a SMILES comes first, the peptide text is derived from it. Where no end group is shown, it is not given here. The star is where a group is joined. 5FAM = O=C1OC2(c3ccc(O)cc3Oc3cc(O)ccc32)c2ccc(C(=O)*)cc21

T1: α-parvin-CHC (residues 242–372) (Homo sapiens, UniProt Q9NVD7)
T1 construct: α-parvin-CHC (242–372) were subcloned; GST (N, cleaved yes); made in house; host or cells: Escherichia coli BL21
T1 sequence (Q9NVD7 242-372): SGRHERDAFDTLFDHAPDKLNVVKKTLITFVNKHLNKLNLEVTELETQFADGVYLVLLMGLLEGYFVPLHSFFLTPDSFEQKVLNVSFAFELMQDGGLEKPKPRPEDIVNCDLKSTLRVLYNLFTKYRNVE

T2: α-parvin-CHC (C-terminal calponin homology domain fragment of human α-parvin, residues 242-372) (human, UniProt Q9NVD7 242-372)
T2 construct: α-parvin, human, residues 242-372: the entire C-terminal CH domain and a portion of the inter-CH domain linker; Expressed from pGEX-6P1 (BamHI/EcoRI); also called type-5 CH domain of α-parvin; actopaxin; source: E. coli BL21, GST fusion, purified (glutathione sepharose, 3C-protease cleavage, Superdex 75); 15N-enriched for NMR
T2 sequence (looked up): T1 sequence (Q9NVD7 242-372)

T3: full-length human α-parvin (1-372) (human, UniProt Q9NVD7 1-372)
T3 construct: α-parvin, human, full length, residues 1-372; Expressed from pGEX-6P1 (EcoRI/EcoRI); also called full-length α-parvin; actopaxin; source: E. coli BL21, GST fusion, purified (glutathione sepharose, 3C-protease cleavage, MonoQ)
T3 sequence (looked up): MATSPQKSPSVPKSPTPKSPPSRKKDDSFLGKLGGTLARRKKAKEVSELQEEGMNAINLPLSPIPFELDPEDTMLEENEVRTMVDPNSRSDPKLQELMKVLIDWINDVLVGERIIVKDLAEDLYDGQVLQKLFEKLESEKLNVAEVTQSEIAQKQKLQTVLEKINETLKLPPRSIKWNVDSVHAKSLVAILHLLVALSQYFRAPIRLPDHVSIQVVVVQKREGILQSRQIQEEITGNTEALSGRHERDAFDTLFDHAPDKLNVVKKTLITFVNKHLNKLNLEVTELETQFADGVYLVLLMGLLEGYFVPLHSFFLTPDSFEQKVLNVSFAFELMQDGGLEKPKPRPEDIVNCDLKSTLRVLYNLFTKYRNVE

B1: paxillin LD4 peptide (human paxillin residues 262-281) (peptide)
peptide: ATRELDELMASLSDFKFMAQ
notes: paxillin, human, LD4 motif, residues 262-281; source: synthetic peptide, bought: Severn Biotech
B2: paxillin LD2 peptide (human paxillin residues 141-160) (peptide)
peptide: NLSELDRLLLELNAVQHNPP
notes: paxillin, human, LD2 motif, residues 141-160; source: synthetic peptide, bought: Severn Biotech
B3: paxillin LD1 peptide (human paxillin residues 1-20) (peptide)
peptide: MDDLDALLADLESTTSHISK
notes: paxillin, human, LD1 motif, residues 1-20; source: synthetic peptide, bought: Severn Biotech
B4: 5-FAM-labeled LD1 peptide (paxillin residues 1-20) (peptide)
peptide: MDDLDALLADLESTTSHISK(5FAM)
notes: paxillin, human, LD1 motif, residues 1-20; also called fluorophore-labeled LD1 peptide; source: synthetic peptide, bought: Severn Biotech
B5: paxillin LD3 peptide (human paxillin residues 213-232) (peptide)
peptide: VRPSVESLLDELESSVPSPV
notes: paxillin, human, LD3 motif, residues 213-232; source: synthetic peptide, bought: Severn Biotech

Columns and labels:
[1] = molecular target: T1, α-parvin-CHC (residues 242–372); assay: NMR 1H-15N HSQC titration of 15N-enriched α-parvin-CHC with LD peptides; assay type: binding; details: for KD / affinity range in words: NMR titration, 50 mM sodium phosphate, 100 mM NaCl, pH 6.9, 25°C
[2] = molecular target: paxillin LD1 (Homo sapiens) (UniProt P49023); details: cited from earlier work
[3] = Solubility of LD peptide noted in NMR titration; assay type: physicochemical; details: NMR titration buffer, 50 mM sodium phosphate, 100 mM NaCl, pH 6.9
Experimental: Figure S2. Determination of KD-Values for the Interaction of α−Parvin-CHC w ith LD Peptides […]
Titrations were performed with peptides representing the LD1 (A), LD 2(B), LD3 (C), LD4 (D), and […]
δ∆(1H15N) > 0.2 ppm for LD1 and LD2) were fitted globally to a single-site model (see experimental procedures). The errors refer to the fit only and exclude experimental errors. Note […]
respectively. No value could be derived for LD5 due to its low affinity. The KD-value for LD1 represents the weighted average over both antiparallel binding orientations, which exchange fast […]

[4] = molecular target: T2, α-parvin-CHC (C-terminal calponin …); assay: NMR titration; 1H-15N HSQC of 235 μM 15N-enriched α-parvin-CHC titrated with LD peptide; 50 mM sodium phosphate, 100 mM NaCl, 2 mM DTT, 5% D2O, pH 6.9, 25°C; global fit to a single-site model; details: both partners purified
[5] = molecular target: T3, full-length human α-parvin (1-372); assay: fluorescence polarisation; fluorescence anisotropy; 50 nM 5-FAM-labeled LD1 peptide, protein up to 300 μM; 100 mM potassium phosphate, 2 mM DTT, pH 8.0, 25°C; global fit to a single-site model; details: both partners purified
[6] = molecular target: T2, α-parvin-CHC (C-terminal calponin …); assay: as above; details: both partners purified

Row | Molecule | KD / affinity range in words [1] | Kd [4] [µM] | other results
1 | PROXYL-labeled LD1: N-terminally blocked LD1 with N-terminal methionine replaced by cysteine, labeled with 3-maleimido-PROXYL (C(3‑maleimido‑PROXYL)DDLDALLADLESTTSHISK; also: N-terminally blocked (group not given here)) |  |  | KD-value compared with underivatized LD1 peptide ([1]; data not shown): the same
2 | α-parvin CHC (from UniProt Q9NVD7) |  |  | Kd [2]: 1200 µM
3 | CSCC[C@H](NC(=O)[C@H](Cc1ccccc1)NC(=O)[C@H](CCCCN)NC(=O)[C@H](Cc1ccccc1)NC(=O)[C@H](CC(=O)O)NC(=O)[C@H](CO)NC(=O)[C@H](CC(C)C)NC(=O)[C@H](CO)NC(=O)[C@H](C)NC(=O)[C@H](CCSC)NC(=O)[C@H](CC(C)C)NC(=O)[C@H](CCC(=O)O)NC(=O)[C@H](CC(=O)O)NC(=O)[C@H](CC(C)C)NC(=O)[C@H](CCC(=O)O)NC(=O)[C@H](CCCNC(=N)N)NC(=O)[C@@H](NC(=O)[C@H](C)N)[C@@H](C)O)C(=O)N[C@@H](C)C(=O)N[C@@H](CCC(N)=O)C(=O)O [LD4] (H-ATRELDELMASLSDFKFMAQ-OH) | micromolar range |  | solubility (in words) [3]: poor solubility
4 | CC[C@H](C)[C@H](NC(=O)[C@H](Cc1c[nH]cn1)NC(=O)[C@H](CO)NC(=O)[C@@H](NC(=O)[C@@H](NC(=O)[C@H](CO)NC(=O)[C@H](CCC(=O)O)NC(=O)[C@H](CC(C)C)NC(=O)[C@H](CC(=O)O)NC(=O)[C@H](C)NC(=O)[C@H](CC(C)C)NC(=O)[C@H](CC(C)C)NC(=O)[C@H](C)NC(=O)[C@H](CC(=O)O)NC(=O)[C@H](CC(C)C)NC(=O)[C@H](CC(=O)O)NC(=O)[C@H](CC(=O)O)NC(=O)[C@@H](N)CCSC)[C@@H](C)O)[C@@H](C)O)C(=O)N[C@@H](CO)C(=O)N[C@@H](CCCCN)C(=O)O [LD1] (H-MDDLDALLADLESTTSHISK-OH) | micromolar range |  | 
5 | CC(C)C[C@H](NC(=O)[C@H](CCC(=O)O)NC(=O)[C@H](CC(C)C)NC(=O)[C@H](CC(C)C)NC(=O)[C@H](CC(C)C)NC(=O)[C@H](CCCNC(=N)N)NC(=O)[C@H](CC(=O)O)NC(=O)[C@H](CC(C)C)NC(=O)[C@H](CCC(=O)O)NC(=O)[C@H](CO)NC(=O)[C@H](CC(C)C)NC(=O)[C@@H](N)CC(N)=O)C(=O)N[C@@H](CC(N)=O)C(=O)N[C@@H](C)C(=O)N[C@H](C(=O)N[C@@H](CCC(N)=O)C(=O)N[C@@H](Cc1c[nH]cn1)C(=O)N[C@@H](CC(N)=O)C(=O)N1CCC[C@H]1C(=O)N1CCC[C@H]1C(=O)O)C(C)C [LD2] | micromolar range |  | 
6 | PGSQLDSMLGSLQSDLNKLG [LD5] | low affinity; also recorded: millimolar range; also recorded: mM range ^a |  | 
7 | CC(C)C[C@H](NC(=O)[C@H](CCC(=O)O)NC(=O)[C@H](CC(=O)O)NC(=O)[C@H](CC(C)C)NC(=O)[C@H](CC(C)C)NC(=O)[C@H](CO)NC(=O)[C@H](CCC(=O)O)NC(=O)[C@@H](NC(=O)[C@H](CO)NC(=O)[C@@H]1CCCN1C(=O)[C@H](CCCNC(=N)N)NC(=O)[C@@H](N)C(C)C)C(C)C)C(=O)N[C@@H](CCC(=O)O)C(=O)N[C@@H](CO)C(=O)N[C@@H](CO)C(=O)N[C@H](C(=O)N1CCC[C@H]1C(=O)N[C@@H](CO)C(=O)N1CCC[C@H]1C(=O)N[C@H](C(=O)O)C(C)C)C(C)C [LD3] (H-VRPSVESLLDELESSVPSPV-OH) | relatively low affinity; also recorded: millimolar range |  | 
8 | B1 |  | 140 ± 30 | 
9 | B2 |  | 204 ± 3 | 
10 | B3 |  | 96 ± 2 | 
11 | B4 |  |  | Kd [5]: 130 ± 22 µM; Kd [6]: 120 ± 20 µM
12 | B5 |  | 2300 ± 100 | 
